Reference: patent US20250302974A1, “LECTIN-DRUG CONJUGATES” (UNICHEM LABORATORIES LIMITED, priority 2021, published 2025)

Key:
[1] = Glycan binding study, O-Glycan array containing 94 glycans; details: T-antigen and its extended core structures
[2] = test system: bladder cancer cells (T24); assay: Colocalization study in cell organelles, confocal microscopy, FITC-tagged lectin; type: cell-based; details: 100 μg/mL FITC-labelled, 2 h
Procedure: Study was performed to analyze the localization of SEQ ID NO 2 (test item) in cell organelles using Confocal microscopy.
Test Item provided as aqueous solution was tagged with FITC label at Bioklone Biotech Pvt Ltd. Resultant concentration of FITC tagged test Item was 1 mg/mL.
The stock solution of Test Item was diluted in Serum Free Medium (SFM) at single concentration—100 μg/mL.
Cells were plated on a glass coverslip at a density of 0.1×10^6 cells per well.
Following the incubation cells were washed with PBS (3 washes) and fixed using 4% paraformaldehyde for 10 min at RT. After fixation, cells were permeabilized using 0.5% IGEPAL for 10 min at RT (Permeabilization was not done for cells that were stained with Pan-Cadherin). Post permeabilization, cells were blocked using 5% normal goat serum for 1 hour at RT. Post blocking, cells were treated with organelle specific markers for 1.5 hours at RT followed by secondary antibody for 2 hours at RT.
Following antibodies were used for different organelles:
Post incubation, cells were washed using PBST (3 washes) and PBS (3 washes) and stained with DAPI (nucleus stain) for 3 min at RT.
Cells were washed (3 washes) and mounted on a glass slide using Prolong Glass antifade mountant. Imaging was done using Confocal fluorescence microscope (Make: Olympus FV1000) at AIRF, JNU. Images were captured using software FluoView. […]

[3] = test system: PBMC Normal; assay: Cytotoxic effect by MTT assay, 48 h; details: for Percent cytotoxicity wrt control: PBMC, 48 h
Procedure: Cells were treated with Test Items at various concentrations (0.0001 μM-10 μM) for 48 h. The cells corresponding to Positive Control group were treated with Doxorubicin at a concentration ranging from 0.1 μM-100 μM. The Untreated cells were used as Control. After 48 h of incubation, the effect of Test Items on cytotoxicity of cells was determined by MTT assay, the plates were taken out and 20 μl of 5 mg/m1 of MTT 3-(4,5-dimethythiazol-2-yl)-2,5-diphenyl tetrazolium bromide solution was added to all the wells. Cells were incubated for 3 h at 37° C. The supernatant was aspirated. 150 μl of DMSO was added to each well to dissolve formazan crystals. The absorbance of each well was then read at 540 nm using Synergy HT micro plate reader.
The % Cytotoxicity was calculated using the formula:
Where, X=Absorbance of cells treated with Test Item; R=Absorbance of Control cells (Untreated cells maintained in growth medium only).

B1: SEQ ID NO: 2: recombinant variant of the S. rolfsii lectin amino acid sequence (reported as Rec-2 in WO2010/095143) (protein)
chain: TYKITVRVYQTNPDAFFHPVEKTVWKYANGGTWTITDDQHVLTMGGSGTSGTLRFHADNGESFTATFGVHNYKRWCDIVTNLAADETGMVINQQYYSQKNREEARERQLSNYQVKNAKGRNFQIVYTEAEGNDLHANLIIG
[1]
  binding profile to O-glycans (in words): strong and broad binding profile
[2]
  colocalization in cell organelles: colocalized in Mitochondria, Endoplasmic reticulum, Golgi bodies and Plasma membrane
  localization in the nuclear envelope: no localization was observed
[3]; 0.0001 μM
  Percent cytotoxicity wrt control: −7.4%
[3]; 0.001 μM
  Percent cytotoxicity wrt control: 19.9%
[3]; 0.01 μM
  Percent cytotoxicity wrt control: 24%
[3]; 0.1 μM
  Percent cytotoxicity wrt control: 44.9%
[3]; 1 μM
  Percent cytotoxicity wrt control: 49.5%
[3]; 10 μM
  Percent cytotoxicity wrt control: 43.4%
[3]; read-out: IC50 Values, PBMC Normal, after 48 h of treatment
  IC50: > 10 µM
